Results as given in US20110217734A1 (UNIVERSITY OF ILLINOIS AT URBANA CHAMPAIGN, published 2011).

Biological target: the molecule itself
Assay: size-exclusion chromatography, self-association

B1: RhiG-C-His (enzyme)
chain: MKMQLIDCTLRDGGNFNNWFFSAEDINQIILHLDKANVNIIEIGYIGGSGSNKEKSVGSLANCTPELLEQLPKTIHSHLAAMVVPSVCELHLLDNLNPQLIPWIRVASYPHNAEDALPYIEYLKNRGFHVSFNVMAASYIEEKDMAELAKKSHVFGADVFYMADSFGNLTPDGVRKRVAAAFDQADCPVGFHGHNNLGLAFTNALEAMDAGATFIDTSLCGMARGAGNLPTEQFVSAIHHWDKFGDIPYKLHPILTAAEYVLSSILSSPMKISTPEIISGISNIHYYFYDLVISKCREVNLDPLQVSTLLGQTLPKRVDMSYIESVIDQNFRQESAK
notes: Recombinant protein expressed in E. coli BL21(DE3), 38.7 kDa per chain; Size-exclusion chromatography gave a native MW of about 75 kDa (homodimer); also called RhiG purified as a C-terminal fusion with a hexahistidine tag; not shown: C-terminal hexahistidine tag from the pET26b vector
binding result: binds
